From the supplement of paper PMC7125110
± gives the standard error. For some of these results: Fewer inactive variants are shown than the library holds.

B1: glmS ribozyme (parent)
chain: AUAAAAGCGCCAGAACUACAGAAAUGUAGUUGACGAGGAGGAGGUUUAUCGAAUUUUCGGCGGAUGCCUCCAAA

Columns and labels:
Conditions in all cases: with glucosamine-6-phosphate
[1] = variants of: B1; experiment: kcat; higher = faster cleavage; RNA array
Method in brief: (§1)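 kobs was derived by fitting per-tile medians to one- or two-exponential decays after normalising signals to baseline and to non-cleaving reference variants. Those signals came from barcoded ribozyme variants transcribed in situ by E. coli RNA polymerase on sequenced MiSeq chips, followed through a hybridised Cy3 probe at 37 °C and imaged over ~14 h. Glucosamine-6-phosphate (40 μM to 10 mM) in HEPES/KCl/Mg(OAc)2 buffer was flowed in. Weighted Michaelis–Menten fits across concentrations then gave kcat and KM.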

[2] = variants of: B1; experiment: self-cleavage kobs at 160 uM GlcN6P; higher = faster cleavage; RNA array
Method in brief: as §1

[3] = variants of: B1; experiment: self-cleavage kobs at 640 uM GlcN6P; higher = faster cleavage; RNA array
Method in brief: as §1

[4] = variants of: B1; experiment: self-cleavage kobs at 2500 uM GlcN6P; higher = faster cleavage; RNA array
Method in brief: as §1

[5] = variants of: B1; experiment: self-cleavage kobs at 10000 uM GlcN6P; higher = faster cleavage; RNA array
Method in brief: as §1

[6] = variants of: B1; experiment: self-cleavage kobs at 40 uM GlcN6P; higher = faster cleavage; RNA array
Method in brief: as §1

[7] = variants of: B1; experiment: KM; higher = weaker cofactor use; RNA array
Method in brief: as §1

| Variant | kcat [1] | self-cleavage kobs at 160 uM GlcN6P [2] | self-cleavage kobs at 640 uM GlcN6P [3] | self-cleavage kobs at 2500 uM GlcN6P [4] | self-cleavage kobs at 10000 uM GlcN6P [5] | self-cleavage kobs at 40 uM GlcN6P [6] | KM [7] |
| --- | --- | --- | --- | --- | --- | --- | --- |
| U31A G41A | 0.000876 ± 0.00042 s⁻¹ | 8.73e-05 ± 1.5e-05 s⁻¹ | 0.000163 ± 3.6e-05 s⁻¹ | 0.00078 ± 0.00012 s⁻¹ | 0.000647 ± 0.00014 s⁻¹ |  |  |
| U46G C71G | 0.000535 ± 0.00017 s⁻¹ | 5.99e-05 ± 1.8e-05 s⁻¹ | 0.000392 ± 7.6e-05 s⁻¹ | 0.000849 ± 0.00013 s⁻¹ | 0.000435 ± 5.5e-05 s⁻¹ | 4.15e-05 ± 1.4e-05 s⁻¹ |  |
| A12U C61A G63C C70U | 3.89e-05 ± 1.1e-05 s⁻¹ | 3.45e-05 ± 1.3e-05 s⁻¹ |  | 4.79e-05 ± 1.7e-05 s⁻¹ |  |  |  |
| C10U G59U | 2.6e-05 ± 1.8e-06 s⁻¹ |  |  |  | 2.16e-05 ± 1.1e-05 s⁻¹ |  | 2000 ± 700 µM |
| A39C A42G | 0.00493 ± 0.0008 s⁻¹ | 0.000376 ± 7.6e-05 s⁻¹ | 0.00152 ± 0.00029 s⁻¹ | 0.00282 ± 0.00046 s⁻¹ | 0.0047 ± 0.00074 s⁻¹ | 0.000141 ± 1.4e-05 s⁻¹ | 1490 ± 310 µM |
| U31C U47A | 0.00379 ± 0.00061 s⁻¹ | 0.000354 ± 7.7e-05 s⁻¹ | 0.00107 ± 0.00022 s⁻¹ | 0.00178 ± 0.00031 s⁻¹ | 0.00367 ± 0.00049 s⁻¹ | 8.24e-05 ± 1.4e-05 s⁻¹ | 1800 ± 460 µM |
| A15G C16U | 0.00689 ± 0.0016 s⁻¹ | 0.000875 ± 0.00017 s⁻¹ | 0.00277 ± 0.00047 s⁻¹ | 0.00432 ± 0.00071 s⁻¹ | 0.00798 ± 0.0011 s⁻¹ | 0.000403 ± 5.8e-05 s⁻¹ | 876 ± 320 µM |
| C34U A48G C68A | < 1e-05 s⁻¹ |  |  | < 1e-05 s⁻¹ |  | < 1e-05 s⁻¹ |  |
| G51U U57A | < 1e-05 s⁻¹ |  |  | < 1e-05 s⁻¹ | < 1e-05 s⁻¹ |  |  |
| C11U G38C | < 1e-05 s⁻¹ |  | < 1e-05 s⁻¹ | < 1e-05 s⁻¹ |  |  |  |
| A52G U55C | 0.00205 ± 0.00032 s⁻¹ | 8.26e-05 ± 1.2e-05 s⁻¹ | 0.000325 ± 5e-05 s⁻¹ | 0.000739 ± 9.4e-05 s⁻¹ | 0.00158 ± 0.00017 s⁻¹ | 3.24e-05 ± 8.4e-06 s⁻¹ | 3680 ± 850 µM |
| A52G U55G | 0.00167 ± 0.00021 s⁻¹ | 8.73e-05 ± 8.7e-06 s⁻¹ | 0.000252 ± 2.5e-05 s⁻¹ | 0.000786 ± 7.4e-05 s⁻¹ | 0.00124 ± 0.00013 s⁻¹ |  | 3170 ± 560 µM |
| C11G G43A | < 1e-05 s⁻¹ | < 1e-05 s⁻¹ | < 1e-05 s⁻¹ |  | < 1e-05 s⁻¹ | < 1e-05 s⁻¹ | 525 ± 190 µM |
| A12G A14U C58A G66C | 0.000245 ± 7.5e-05 s⁻¹ |  |  |  | 8.77e-05 ± 2.7e-05 s⁻¹ |  |  |
| G59A C68U | 1.6e-05 ± 1.4e-06 s⁻¹ |  |  |  |  |  |  |
| A14U U30A | 0.00136 ± 0.00037 s⁻¹ | 8.35e-05 ± 1.7e-05 s⁻¹ | 0.000337 ± 5.2e-05 s⁻¹ | 0.000564 ± 9.8e-05 s⁻¹ | 0.00134 ± 0.00021 s⁻¹ | 3.62e-05 ± 1e-05 s⁻¹ | 2250 ± 960 µM |
| C8G G60A | < 1e-05 s⁻¹ |  |  |  | < 1e-05 s⁻¹ | < 1e-05 s⁻¹ |  |

| Variant | kcat [1] | self-cleavage kobs at 160 uM GlcN6P [2] | self-cleavage kobs at 640 uM GlcN6P [3] | self-cleavage kobs at 2500 uM GlcN6P [4] | self-cleavage kobs at 10000 uM GlcN6P [5] | self-cleavage kobs at 40 uM GlcN6P [6] | KM [7] |
| --- | --- | --- | --- | --- | --- | --- | --- |
| U30A A52U | 0.000132 ± 2.2e-05 s⁻¹ |  |  | 4.37e-05 ± 1.6e-05 s⁻¹ | 9.26e-05 ± 1.4e-05 s⁻¹ | < 1e-05 s⁻¹ | 4380 ± 1900 µM |
| U30G C68U | 0.00118 ± 0.00027 s⁻¹ |  | 0.000154 ± 3.1e-05 s⁻¹ | 0.000642 ± 0.00015 s⁻¹ | 0.000827 ± 0.00013 s⁻¹ |  | 3820 ± 1500 µM |
| C50G U55G | 3.86e-05 ± 1.8e-05 s⁻¹ | 7.28e-05 ± 1.9e-05 s⁻¹ |  | 4.97e-05 ± 1.6e-05 s⁻¹ |  |  |  |
| G13C U45A | 0.000315 ± 0.00011 s⁻¹ |  | 6.93e-05 ± 3.2e-05 s⁻¹ | 9.3e-05 ± 2.3e-05 s⁻¹ | 0.000213 ± 3.9e-05 s⁻¹ |  |  |
| U30G A39C | 0.00157 ± 0.00013 s⁻¹ | 0.000114 ± 1.6e-05 s⁻¹ | 0.000396 ± 3.6e-05 s⁻¹ | 0.000787 ± 7.3e-05 s⁻¹ | 0.00139 ± 0.00011 s⁻¹ | 3.28e-05 ± 5.7e-06 s⁻¹ | 2010 ± 270 µM |
| A72C | 0.00605 ± 0.0029 s⁻¹ |  | 0.00257 ± 0.00043 s⁻¹ | 0.00362 ± 0.00077 s⁻¹ | 0.0121 ± 0.0021 s⁻¹ | 0.000372 ± 7.3e-05 s⁻¹ |  |
| C50A U55G | 2.27e-05 ± 2.2e-06 s⁻¹ |  |  |  |  |  |  |
| A12U U57C | 0.00174 ± 0.00086 s⁻¹ | 6.12e-05 ± 2.3e-05 s⁻¹ | 0.000217 ± 3.9e-05 s⁻¹ | 0.000638 ± 0.00014 s⁻¹ | 0.00126 ± 0.00038 s⁻¹ | 6.27e-05 ± 2.3e-05 s⁻¹ |  |
| C16A A52G | 0.000129 ± 7.4e-06 s⁻¹ |  | 6.18e-05 ± 2.3e-05 s⁻¹ | 0.000102 ± 1.9e-05 s⁻¹ | 0.000118 ± 1.9e-05 s⁻¹ |  | 730 ± 180 µM |
| C67A U69G | 4.96e-05 ± 1.7e-05 s⁻¹ |  | 6.63e-05 ± 1.6e-05 s⁻¹ | 6.57e-05 ± 1.3e-05 s⁻¹ |  |  |  |
| G13U A15C U54C | 0.000132 ± 1.2e-05 s⁻¹ |  |  | 0.00013 ± 3.3e-05 s⁻¹ | 0.000122 ± 1.9e-05 s⁻¹ |  |  |
| G29U A39G | 0.0173 ± 0.0026 s⁻¹ | 0.000723 ± 0.00021 s⁻¹ | 0.00233 ± 0.0004 s⁻¹ | 0.0072 ± 0.0012 s⁻¹ | 0.0129 ± 0.0028 s⁻¹ | 0.000218 ± 4.4e-05 s⁻¹ | 3640 ± 720 µM |
| G13U U56G | 0.000921 ± 0.00016 s⁻¹ | 7.12e-05 ± 2e-05 s⁻¹ | 0.000172 ± 2.5e-05 s⁻¹ | 0.000372 ± 6.6e-05 s⁻¹ | 0.000774 ± 9.3e-05 s⁻¹ |  | 2720 ± 820 µM |
| G37U C68U | < 1e-05 s⁻¹ |  |  |  |  |  |  |
| U46A C50U C58A C71G | 1.07e-05 ± 3e-06 s⁻¹ |  |  |  |  |  |  |
| A33G C68G | 3.02e-05 ± 6e-06 s⁻¹ | 3.17e-05 ± 1.3e-05 s⁻¹ | 3.59e-05 ± 1.5e-05 s⁻¹ |  |  |  |  |
| A14C U47G | 0.00101 ± 0.00014 s⁻¹ | 6.35e-05 ± 1.2e-05 s⁻¹ | 0.000208 ± 3e-05 s⁻¹ | 0.000422 ± 8.2e-05 s⁻¹ | 0.000874 ± 0.00012 s⁻¹ | 2.31e-05 ± 1.1e-05 s⁻¹ | 2500 ± 550 µM |
